This test has as its target adalimumab. Put plainly: SPR; ligand on CM5; max response at 800 nM, rounded to 50 Ru.

“ZGE0214 (domain E with A/R/I at positions 33/40/51) (designed binder)” returned a max response (Ru) of 4100 Ru. Next, “ZGE0234 (domain E with A/G/R at positions 33/40/51) (designed binder)”: 2950 Ru.

For the origin of these results see US20250277006A1.
